According to patent US20190374629A1:

What was measured:
[1] = molecular target: basigin (human) (UniProt P35613); experiment: SPR, BIAcore T200, basigin amine-coupled on CM5 chip, RH5 as analyte 8-0.0625 µM, global 1:1 fit, 20 °C
[2] = molecular target: basigin (human) (UniProt P35613); experiment: SPR (BIAcore T200), basigin amine-coupled to a CM5 chip; analyte PfRH5ΔNL lyophilised and resuspended before measurement, two-fold dilutions from a top concentration of 8 µM, global 1:1 fit [lower left panel (lyophilised]
[3] = molecular target: basigin (human) (UniProt P35613); experiment: SPR (BIAcore T200), basigin amine-coupled to a CM5 chip; analyte PfRH5ΔNLHS1 lyophilised and resuspended before measurement, two-fold dilutions from a top concentration of 8 µM, global 1:1 fit [lower right panel (lyophilised]

Substance | Kd [1] | Kd [2] | Kd [3]
PfRH5ΔNL (from UniProt Q8IFM5 140-526) (ligand) | 290 nM | 310 nM | –
PfRH5ΔNLHS1 (from UniProt Q8IFM5 140-526) (ligand) | 410 nM | – | 300 nM
